Test results: PMC12344292, “Structural basis for membrane microdomain formation by a human Stomatin complex” (Nature Communications, 2025)

Target: the molecule itself
Assay: cryo-EM structure; single-particle analysis of native membrane vesicles holding ALFA-tagged Stomatin, isolated on ALFA Selector CE resin and eluted with 0.2 mM ALFA peptide; 20 mM K-HEPES pH 7.4, 300 mM KCl, 5 mM DTT; C16 then local C8 symmetry

B1: human Stomatin (natural protein, UniProt P27105-1 1-288, looked up)
chain: MAEKRHTRDSEAQRLPDSFKDSPSKGLGPCGWILVAFSFLFTVITFPISIWMCIKIIKEYERAIIFRLGRILQGGAKGPGLFFILPCTDSFIKVDMRTISFDIPPQEILTKDSVTISVDGVVYYRVQNATLAVANITNADSATRLLAQTTLRNVLGTKNLSQILSDREEIAHNMQSTLDDATDAWGIKVERVEIKDVKLPVQLQRAMAAEAEASREARAKVIAAEGEMNASRALKEASMVITESPAALQLRYLQTLTTIAAEKNSTIVFPLPIDMLQGIIGAKHSHLG
notes: Stomatin, human, UniProt P27105-1; full-length protein in its membrane environment; The final atomic model includes residues 14-18 and 29-278; The 16 identical chains adopt two alternating conformations (Conformer A and B); also called N-terminal ALFA-tagged human Stomatin; Stomatin complex; source: HEK293S GnTI- cells infected with BacMam baculovirus (pEG BacMam); isolated in native membrane …
  stoichiometry N: 16
